The target of the assay is recombinant Roy1–Skp1 complex (S. cerevisiae, UniProt Q04847 1-553; P52286 1-194). The assay can be described thus: pull-down.
recombinant Roy1–Skp1 complex, sequence (Q04847 whole entry, chain 1 of 2): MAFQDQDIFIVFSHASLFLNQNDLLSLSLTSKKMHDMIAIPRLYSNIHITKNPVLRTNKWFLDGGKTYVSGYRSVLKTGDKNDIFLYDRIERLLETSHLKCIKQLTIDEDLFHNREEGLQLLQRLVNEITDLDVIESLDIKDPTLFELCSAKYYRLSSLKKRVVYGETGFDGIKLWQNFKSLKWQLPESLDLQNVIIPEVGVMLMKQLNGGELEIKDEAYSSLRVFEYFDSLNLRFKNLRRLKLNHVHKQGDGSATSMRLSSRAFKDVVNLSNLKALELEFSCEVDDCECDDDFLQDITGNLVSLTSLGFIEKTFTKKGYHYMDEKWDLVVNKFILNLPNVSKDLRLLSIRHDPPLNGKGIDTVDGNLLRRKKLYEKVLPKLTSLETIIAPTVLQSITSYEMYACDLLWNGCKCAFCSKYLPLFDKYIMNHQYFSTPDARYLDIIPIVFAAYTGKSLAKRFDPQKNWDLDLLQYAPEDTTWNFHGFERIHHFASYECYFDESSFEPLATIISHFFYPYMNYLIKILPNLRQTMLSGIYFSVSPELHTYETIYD
recombinant Roy1–Skp1 complex, sequence (P52286 whole entry, chain 2 of 2): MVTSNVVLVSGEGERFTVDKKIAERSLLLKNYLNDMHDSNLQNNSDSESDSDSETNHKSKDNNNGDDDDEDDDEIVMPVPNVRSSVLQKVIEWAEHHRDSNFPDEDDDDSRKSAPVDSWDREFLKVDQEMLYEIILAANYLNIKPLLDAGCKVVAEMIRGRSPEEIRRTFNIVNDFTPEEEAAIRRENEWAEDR

B1: GST-Ypt52 (natural protein, S. cerevisiae, UniProt P36018 1-234, looked up)
chain: MLQFKLVLLGDSSVGKSSIVHRFVKDTFDELRESTIGAAFLSQSITIHPNDGNETKDVVIKFEIWDTAGQERYKSLAPMYYRNANAALVVYDITQEDSLQKARNWVDELKNKVGDDDLVIYLLGNKVDLCQETPSTETSPDSNEGGDEEQKVRAISTEEAKQYAQEQGLLFREVSAKTGEGVKEIFQDIGEKLYDLKKDEILSKQNRQIGGGNNGQVDINLQRPSTNDPTSCCS
With B1, the binding result is “binds”.

The record behind these values is publication PMC3084679 (Molecular Biology of the Cell, 2011).
